Data as given in patent publication US9260754B2, “Connexin mutation detection for lymphatic variation and disease” (University of Pittsburgh—Of the Commonwealth System of …, priority 2010, dated 2016).
Where no end group is shown, it is not given here.

Legend:
[1] = test system: hTERTs (telomerase-transfected human dermal lymphatic endothelial cells); assay: Intercellular communication assay (parachute Calcein AM dye transfer) with gap junction inhibitors; assay type: cell-based; conditions: GRA 10 μM, Gap 27 500 μM, 40 min, versus control, p<0.05
Procedure: To characterize intercellular gap junction communication over time between seeded donor cells and an acceptor monolayer, LECs were loaded with 2.5 μM Calcein-AM (Invitrogen) in (PBS) for 30 min at 37° C. Excessive dye was removed by rinsing three times in PBS before dislodgment using 500 μl 0.25% Trypsin-EDTA. Detached cells were dispersed with a pipette and 10 μl cell suspensions was added to a confluent LEC monolayer in MCDB-131 supplemented with 25 mM HEPES. To ensure attachment of dye loaded suspended cells, the dish was incubated at 37° C. for 40 min prior to syringe filtration of the medium to remove floating cells that would interfere with subsequent imaging. The dish was thereafter mounted in a temperature controlled open chamber microincubator (Harvard Apparatus) on an inverted Olympus IX81 microscope. […] The Gap27 was handled similarly to GRA and a DMSO control was measured on the same day. Significance was assigned at p<0.05 and treatments were analyzed as independent samples using a Student's t-test. […]
Calcein AM allows cell permeable loading, and with a molecular weight of 662, is frequently used in gap junction communication studies. […] Replicate blinded experiments were performed on at least 2 separate days, and quantitation of dye spread was determined in an automated manner using Metamorph and standardized regions of interest with auto-thresholding. […]

HeLa cells [2] = assay: Cx47 gap junction plaque formation by immunofluorescent confocal microscopy in transfected HeLa cells; assay type: cell-based, human; conditions: near confluent transfected HeLa cells
Procedure: Human neonatal foreskin was collected anonymously as discarded tissue according to an IRB protocol. Samples were collected immediately after harvest in DMEM, then fixed in 2% paraformaldehyde for 2 hrs, then stored in 30% sucrose in 1×PBS overnight for cryosectioning, and sectioned in 6 μm slices at −30° C. Transfected (stable and transient) and untransfected HeLa cells were grown to near confluence in coverslip bottom dishes. All cells were rinsed with PBS and fixed with 2% paraformaldehyde. Subsequently, tissue and HeLa cells were processed similarly: following permeabilization with 0.1% Triton X, cells were blocked with 2% BSA. A human Cx47 antibody (ab) was obtained from the S. Scherer laboratory: polyclonal rabbit against amino acids 344-399 in the cytoplasmic C-terminal tail; we used human CNS tissue and positive oligodendrocyte staining as a positive control and primary antibody delete and rabbit IgG as negative controls (data not shown). Cx47 ab was diluted in 0.5% BSA in a 1:200 ratio, applied to cells and incubated at RT for one hour. Mouse monoclonal Proxl (Chemicon) was used as a lymphatic marker for the foreskin samples. Cells were incubated with the secondary abs (Donkey Anti-Rabbit Cy5 and Donkey Anti-Mouse Cy3; Invitrogen) for one hour at RT and washed; Draq5 was used as a nuclear marker. HeLa images were acquired with an inverted Olympus Fluoview 1000 Confocal Microscope 100× oil, 1.4 NA objective. Foreskin images were acquired on a Zeiss Meta LSM 510 inverted confocal microscope with 40× oil, 1.3 N.A. objective. LECs (primary human microvascular adult dermal lymphatics; Lonza) were grown in fibronectin coated coverslip bottom MatTeks dishes in EGM™-2 MV—Microvascular Endothelial Cell Medium-2 (Lonza Inc.) to approximately 80% confluence, and prepared similarly but a commercially available (AbCam) Cx47 ab, polyclonal rabbit against amino acids 41-70 in the human sequence was used along with Drag 5 nuclear marker and phalloidin to mark f-actin.
Immunofluorescence microscopy determines the presence or absence of Cx47 gap junction plaques when the constructs are transiently expressed in HeLa cells. Cx plaques reflect a physiologic accumulation of Cx channels in the cell membrane between cells (tens to thousands of channels); thus plaques are indicative of normal trafficking and gap junction formation at the cell membrane.
Immunofluorescence microscopy determines the presence or absence of Cx47 gap junction plaques when the constructs are transiently expressed in HeLa cells. A human Cx47 antibody was obtained: polyclonal rabbit against amino acids 344-399 in the cytoplasmic C-terminal tail (Orthmann-Murphy J L, et al. Mol Cell Neurosci 2007; 34:629-41); we used human CNS tissue and positive oligodendrocyte staining as a positive control and primary antibody delete as a negative control (data not shown). Cultured HeLa cells were routinely fixed and stained with the primary antibodies against Cx47, along with a nuclear marker, and transfected cells were identified by their EGFP signal. Plaques were imaged using an Olympus Fluoview 1000 confocal microscope, 100× oil objective.

HeLa cell pairs = assay: Dual whole cell patch clamp recording of coupling current in transfected HeLa cell pairs; assay type: cell-based, human; conditions: for electrical coupling: Table 6 (Example 4), HeLa cell pairs, 100 mV step, mean ± SEM; for electrical coupling / functional channels in HeLa cell pairs (in words): transfected HeLa cell pairs, voltage step protocol −100 to +100 mV
Procedure: Coupling currents were recorded using simultaneous double whole-cell patch clamp recordings from isolated pairs of cells that were in contact with one another (determined visually) as previously described. Briefly, the pipette solution consisted of (mM): 130 CsCl, 10 EGTA, 10 HEPES, 3 Mg-ATP, 2 Na-ATP, 0.5 CaCl2, pH 7.3. The culture was bathed in a solution consisting of (mM): 140 NaCl, 5 HEPES, 5 glucose, 4 KCl, 2 CsCl, 2 CaCl2, 2 pyruvate, 1 BaCl2, pH 7.3. Transfected HeLas undergo electrophysiologic analysis in a blinded manner. Pairs of cells were chosen for study only if both expressed the GFP marker indicative of successful transfections; both stable and transient transfectants were analyzed. Patch pipettes were fabricated from borosilicate glass, and coupling currents were amplified by Axopatch 200A amplifiers, filtered at 1 KHz, and digitized at 5 KHz for subsequent analysis using pClamp software (Axon Instruments/Molecular Devices; Sunnyvale, Calif.). All experiments were carried out at room temperature (22° C.). Coupling current was quantified by measuring the peak current recorded in the pair when the neighboring cell received a 100 mV step membrane potential change (in both positive and negative directions). Step changes in membrane potential were delivered to each cell in the pair in sequence and the average current recorded in the neighboring cell was determined and divided by 100 to generate coupling current expressed in pA/mV. Means±SEM were calculated and statistical significance using a one-way analysis of variance and Tukey's post-hoc test, p<0.05.
Coupling current is quantified by measuring the peak current recorded in the pair when the neighboring cell receives a 100 mV step membrane potential change (in both positive and negative directions). Step changes in membrane potential are delivered to each cell in the pair in sequence and the average current recorded in the neighboring cell determined and divided by 100 to generate coupling current expressed in pA/mV (FIG. 6C). Replicate measurements (n=3-6) are made on at least two different days. […] The untransfected HeLa cell pairs also show minimal channel function, as predicted.
Electrophysiologic characteristics of GJIC were measured between HeLa cell pairs transfected with the mutant constructs (as indicated by EGFP expression) by dual whole cell patch clamp recording. All experiments were carried out in a blinded manner. Coupling current is quantified by measuring the peak current recorded in the pair when the neighboring cell receives a 100 mV step membrane potential change (in both positive and negative directions). Step changes in membrane potential are delivered to each cell in the pair in sequence and the average current recorded in the neighboring cell determined and divided by 100 to generate coupling current expressed in pA/mV. Untransfected HeLa cells and cells transfected with empty vector (i.e., no hCx47) were used as additional controls.

HeLa cells [3] = assay: Wound assay (proliferation/migration) in confluent transfected HeLa cells; assay type: cell-based, human; conditions: fraction of original wound in HeLa cell monolayer after 24 hrs; mean ± SEM
Procedure: The wound assay, a measure of proliferation/migration, was performed using differential interference contrast time lapse of over 24 hrs using confluent transfected HeLa cells. Analysis was done using TScratch (Geback T, et al. TScratch: a novel and simple software tool for automated analysis of monolayer wound healing assays. Biotechniques 2009; 46:265-74), mean±SEM of at least 10 positions along wound; the scrape width was normalized to the first image for each position. In all cases a two tailed student's T test was applied with p<0.05 considered significant.

[4] = test system: Adult human dermal lymphatic microvascular endothelial cells; assay: Lucifer yellow microinjection dye spread in lymphatic endothelial cells expressing mutant constructs; assay type: cell-based; conditions: for LEC spread: Dye spread to tiers of LECs after 2 min, Lucifer yellow microinjection, mean ± SEM; for dye transfer of Lucifer yellow after microinjection compared to WT-hCx47-EGFP expressing LECs (in words): LECs expressing the mutations
Procedure: Adult human dermal lymphatic microvascular endothelial cells were cultured in EGM™-2 MV (both from Lonza). Cells were electroporated with 2 μg cDNA of the EGFP tagged mutant constructs and then selected with G418 as described above. Cells were microinjected using a combination (1:4 ratio) of 70 kd Texas Red dextran (Invitrogen) to mark injected cell for reference and Lucifer yellow, a known gap junction permeable dye (m.w. 443, −2 charge), to assess change in extent of spread (Abbaci M, et al. Advantages and limitations of commonly used methods to assay the molecular permeability of gap junctional intercellular communication. Biotechniques 2008; 45:33-52, 6-62). All cells were injected using constant conditions and cells were scored for dye spread in tiers from reference cell, using constant exposure time and thresholding, and were imaged using a Nikon TE2000 with temperature controlled motorized stage and Qlmaging Retiga CCD camera. Images were obtained using differential interference contrast (DIC) and standard filters for EGFP (identify expression of mutation), DAPI (for Lucifer yellow) and dsRed (for dextran) preinjection, immediately post-injection and 2 min after injection. Results were calculated as mean SEM and statistical significance was determined in comparison to WT-hCx47-EGFP expressing cells using a Mann-Whitney Test.

| Molecule | GJIC by dye transfer in response to gap junction inhibitors [1] | Cx47 plaque formation (in words) (HeLa cells [2]) | electrical coupling (HeLa cell pairs) [pA/mV] | electrical coupling / functional channels in HeLa cell pairs (in words) (HeLa cell pairs) | wound assay (HeLa cells [3]) | LEC spread [4] [tiers] | dye transfer of Lucifer yellow after microinjection compared to WT-hCx47-EGFP expressing LECs (in words) [4] |
| --- | --- | --- | --- | --- | --- | --- | --- |
| CC1(C)[C@@H](O)CC[C@]2(C)[C@H]3C(=O)C=C4[C@@H]5C[C@@](C)(C(=O)O)CC[C@]5(C)CC[C@@]4(C)[C@]3(C)CC[C@@H]12 [GRA, 18α-glycyrrhetinic acid] | significantly reduced | – | – | – | – | – | – |
| SRPTEKTIFII [Gap 27, Synthetic connexin-mimetic peptide targeted to extracellular loop 2 of Cx43] | significantly reduced | – | – | – | – | – | – |
| H409Y: Cx47 missense mutant H409Y (1225C>T), C terminal, construct expressed in HeLa cells or LECs (protein, listed as Homo sapiens) MSWSFLTRLLEEIHNHSTFVGKVWLTVLVVFRIVLTAVGGEAIYSDEQAKFTCNTRQPGCDNVCYDAFAPLSHVRFWVFQIVVISTPSVMYLGYAVHRLARASEQERRRALRRRPGPRRAPRAHLPPPHAGWPEPADLGEEEPMLGLGEEEEEEETGAAEGAGEEAEEAGAEEACTKAVGADGKAAGTPGPTGQHDGRRRIQREGLMRVYVAQLVARAAFEVAFLVGQYLLYGFEVRPFFPCSRQPCPHVVDCFVSRPTEKTVFLLVMYVVSCLCLLLNLCEMAHLGLGSAQDAVRGRRGPPASAPAPAPRPPPCAFPAAAAGLACPPDYSLVVRAAERARAHDQNLANLALQALRDGAAAGDRDRDSSPCVGLPAASRGPPRAGAPASRTGSATSAGTVGEQGRPGTYERPGAKPRAGSEKGSASSRDGKTTVWI | – | Cx47 intercellular plaques | 46.4 | well coupled | 0.73 | 0.07 | dramatically impaired dye transfer |
| P381S: Cx47 missense mutant P381S (1141C>T), C terminal, construct expressed in HeLa cells or LECs (protein, listed as Homo sapiens) MSWSFLTRLLEEIHNHSTFVGKVWLTVLVVFRIVLTAVGGEAIYSDEQAKFTCNTRQPGCDNVCYDAFAPLSHVRFWVFQIVVISTPSVMYLGYAVHRLARASEQERRRALRRRPGPRRAPRAHLPPPHAGWPEPADLGEEEPMLGLGEEEEEEETGAAEGAGEEAEEAGAEEACTKAVGADGKAAGTPGPTGQHDGRRRIQREGLMRVYVAQLVARAAFEVAFLVGQYLLYGFEVRPFFPCSRQPCPHVVDCFVSRPTEKTVFLLVMYVVSCLCLLLNLCEMAHLGLGSAQDAVRGRRGPPASAPAPAPRPPPCAFPAAAAGLACPPDYSLVVRAAERARAHDQNLANLALQALRDGAAAGDRDRDSSPCVGLPAASRGSPRAGAPASRTGSATSAGTVGEQGRPGTHERPGAKPRAGSEKGSASSRDGKTTVWI | – | Cx47 intercellular plaques | 48.2 | well coupled | 0.70 | 2.26 | significantly enhanced dye transfer |
